The values below come from the nanobody polyreactivity screen of Harvey et al. (2022).

The nature of this data set: yeast display, Sf9 membrane polyspecificity reagent, FACS + sequencing; frameworks hold sequencing errors. Summed up: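 Sorting gates, low and high (top ~1%), were placed on anti-HA fluorescence to track expression and on streptavidin fluorescence to track reagent binding. A clone's polyreactivity label is taken from the gate it came out of. The reagent was 10% biotinylated, detergent-solubilized Sf9 membrane, applied for 1 hour at 4 °C to galactose-induced yeast display cells.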
For the sequence “QVHLVESGGGLVQAGGSLRLSCAASGFIFHYNAMGWYRQAPGKERELVAAITSGDSTDYADSVKGRFTISRDNAKNTVYLQMNSLIPEDTAVYYCAAYHREGRRDDYWGQGTQVTVSS”, the “polyreactivity (PSR sort gate)” value was “low polyreactivity”.
For “QVHLVESGGGLVQAGGSLRLSCAASGFIFSCYAMGWYRQAPGKERELVATITSGGSTVYADSVKGRFTISRDNAKNTVSLEMNSLKPEDTAVYYSNVDSTLYYLSRDYDYWGQATQVTVSS” the value was “high polyreactivity”.
For “QVHLVESGGGLVQAGGSLRLSCAASGFIFVRNARGWYRQAPGKERELVARISRSGGSTYYADSVKGRFTISRDNAKNTVYLQMNSLKQEDTAVYYCAAVLQAYPRLDYWGQGTQVTVSS” the value was “high polyreactivity”; for “QVHLVESGGGLVQAGGSLRLSCAASGFIFYSNAMGWYRQAPGKERELVAAISSGGGSTRYADSVKGRFTISRDNAKNTVYLQMNSLKPQDTAVYYCAAREGYTKFRSTRYYYWGQGTQVTVSS”, “high polyreactivity”.
For “QVHLVESGGGLVQAGGSLRLSCAASGFIRNYAMGWYRQAPGKERELVAAITSSGGRTYYADSVKGRFTISRDNAKNRVYLQMNSLKPEDTAVYYCAAPSRITTGPHREYDYWGQGTLVTVSS” the value was “high polyreactivity”.
Turning to “QVHLVESGGGLVQAGGSLRLSCAASGFTFGIYAMGWYRQAPGKERELVAAIRKGGGSTYYADSVKGRFTISRDNAKNTVYLQMNSLKPEDTAVYYCAADSYRDWHDYWGQGTQVTVSS”, the “polyreactivity (PSR sort gate)” value is listed as “low polyreactivity”.
Turning to “QVHLVESGGGLVQAGGSLRLSCAASGFTFPWYAMGWYRQAPGKERELVAAINTGGSTYYADSVKGRFSISRDNAKNTVYLQMNSLKPDDTEVYYCATLGRYRYLNTYYWGSHDYWGQGTQVTVSS”, the “polyreactivity (PSR sort gate)” value is reported as “high polyreactivity”.
For “QVHLVESGGGLVQAGGSLRLSCAASGFTFRTYAMGWYRQAPGKERELVAAITRNGGTYYADSVKGRFTISRDNAKNTVNLQMNSLKPEDTAVYYCATDPAYWGDQPPEDDYWGQGTQVTVSS” the value was “low polyreactivity”; for “QVHLVESGGGLVQAGGSLRLSCAASGFTFSFYAMGWYRQAPGKERELVAAIDRSGGSTYYADSVKGRFTISRDNAKNTVYLQMNSLKPEDTAFYYCAATVFYGYYYWGQGTQVTVSS”, “high polyreactivity”.
For “QVHLVESGGGLVQAGGSLRLSCAASGFTFSSNAMGWYRQAPGKERELVAAIRSGGTTKYADSVKGRFTISRDNAKNTLYLQMNSLKPEDTAVYYCAARIRDLAGYYYWGQGTQVTVSS” the value was “high polyreactivity”; for “QVHLVESGGGLVQAGGSLRLSCAASGGIFSYYALGWYRQAPGKERELVAAISSGGTTYYADSVKGRFTISRDNAKNTVYLQMNSLKPEDTAVYYCALLVGHNYWGQGTQVTVSS”, “low polyreactivity”.
For “QVHLVESGGGLVQAGGSLRLSCAASGIIFGGNVMGWYRQAGGKERELVAAITWSGGTTYYADSVKGRFTISRDNAKNTVYLQMNSLKPEDTAVYYCAADRFYLDYVAGTYDYWGQGTQVTVSS” the value was “low polyreactivity”; for “QVHLVESGGGLVQAGGSLRLSCAASGIIFSTYAMGWYRQAPGKERELVAAITSTGSTNYADSVKGRFTISRDNAKNTVYLQINRLKQEDTAVYYCAARYAGPSPTDTGHDYWGQGTQVTVSS”, “low polyreactivity”; for “QVHLVESGGGLVQAGGSLRLSCAASGIIFYRYAMGWYRQAPGKESELVAAITRRTASTYYADSVKGRFTLSRDNAKNTVYLPLNSLKPEDSAVYYCSAYSPYSHIVDNFDYWGQGTQVTVSS”, “low polyreactivity”.
With “QVHLVESGGGLVQAGGSLRLSCAASGITLGYYVMGWYRQAPGKERELVAAISSSGGRTYYADSVKGRFTISRDNAKNTVYLQMNSLKPEDTAVYYCSADLGRGIYDYWGQGTQVTVSS”, the “polyreactivity (PSR sort gate)” value is on record as “low polyreactivity”.
For “QVHLVESGGGLVQAGGSLRLSCAASGLIFGGYAMGWDRQAPGKERELVAAISSNSGSTYYADSVKGRFTISRDNAKNTVYLQMNSLKPEDTAVYYCIRYFYQGFDYWGQGTQVTVSS” the value was “high polyreactivity”; for “QVHLVESGGGLVQAGGSLRLSCAASGLIFGRNAMGWYRQAPGKERELVAAISTRGGSTYYADSVKGRFTISRDNAKNTVYLQMNSLKPEDTAVYYCAARGSYGYDYWGQGPQVTVSS”, “high polyreactivity”; for “QVHLVESGGGLVQAGGSLRLSCAASGLIFSFYPMGWYRQAPGKERELVAGINWRGGSTYYADSVKGRFTISRDNAKNTVYLQMNSLKPEETAVYYCAAPSYYYGYWGQGTQVTVLS”, “high polyreactivity”.
For “QVHLVESGGGLVQAGGSLRLSCAASGLTFNRYTMGWYRQAPGKESELVAAITSSGSTYYADSVKGRFTISRDNAKNTVNLQMNSLKPEDTAVDYCNTVYYDWFHYDYWGQGTQVTVSS” the value was “high polyreactivity”.
For “QVHLVESGGGLVQAGGSLRLSCAASGNSLRVYAMGWYRQAPGKERELVAAISYSSVNTYYADSVKGRFTISRDNAKNTVYLQMNSLKPEETAVYYCAADYFYYRRTQYDLRGYPYYYWGQGTQVTVSS” the value was “low polyreactivity”; for “QVHLVESGGGLVQAGGSLRLSCAASGRIFATNAMGWYRPAPGKERELVATITRSAGRTYYADSVKGRFTISRDNAKNTVYLQMNSLKPEDTAVYYCAASYWDTEPGYREYDYWGQGTQVTVSS”, “low polyreactivity”; for “QVHLVESGGGLVQAGGSLRLSCAASGRIFGRNAMGWYRQAPGKERELVAAISKRGGSTSYADSVKGRFTISRDNAKNTVYLQMNSLKPEDTAVYYCATSAPLVTSSGYGYWGHGTQVTVSS”, “high polyreactivity”.
In the case of “QVHLVESGGGLVQAGGSLRLSCAASGRIFGVYAMGWYRQAPGKERELVAVISWSGTSTYYADSVKGRFTISRDYAKNTVYLQMNSLKPEDTAVYYCAADYIGITDYYAIVVYLGYDSWGQGTQVTVSS”, the “polyreactivity (PSR sort gate)” value was “high polyreactivity”.
For the sequence “QVHLVESGGGLVQAGGSLRLSCAASGRIFNPNAMGWYRQAPGKERELVAAITSGDSTNYADSVKGRFTISRDNAKNTVYLQMNSLKPEDTAVYYCAADWTYPYNSWGQGTQVTVSS”, the “polyreactivity (PSR sort gate)” value is on record as “low polyreactivity”.
For “QVHLVESGGGLVQAGGSLRLSCAASGRIFNWYVMGWYRQAPGKERELVAAITSGGITKYADSVKGRFTISRDNAKNTVYLQMNSLKPEDTAVYYCAAYYRRYDYDYWGQGSQVTVSS” the value was “high polyreactivity”; for “QVHLVESGGGLVQAGGSLRLSCAASGRIFPAYVMGWYRQAPGKERELVAGITSASSTYYADSVKGRFTISRDNAKNTVYLQMNSLKPEDTAVYYCAAVGYSVRQRYDYWGQGTQVTVSS”, “high polyreactivity”; for “QVHLVESGGGLVQAGGSLRLSCAASGRIFRTYAMGWYRPAPGKERELVAAISGSGGRTYYADSVKGRFTISRDNAKNTVYLQMNSLIPEDTAVSYCAKYVSIVRYGSTTNYDYWGQGTQVTVSS”, “high polyreactivity”.
For “QVHLVESGGGLVQAGGSLRLSCAASGRIFRYNAMGWYRQAPVKESELVAAISSIGGRTYYADSVKGRFTISRDNAKNTVYLQMNSLQPEDTAVYNCAALSYYVDGEYDYWGQGTQVTVSS” the value was “high polyreactivity”; for “QVHLVESGGGLVQAGGSLRLSCAASGRIFSNNAMGWYRQAPGKERELVATITGSGGRTYYADSVKGRFTISRDNAKNTVYLQMNSLKPEDTAVYYCAAVKRPDYYYWGQGTQVTVSS”, “high polyreactivity”; for “QVHLVESGGGLVQAGGSLRLSCAASGRIFSWYTMGWYRQAPGKERELVAVITSGGTTKYADSVKGRFTISRDNAKNTVYLQMNSLKPEDTAVYYCNVAGRDYAVRWGSFDYWGQGTQVTVSS”, “low polyreactivity”.
